The record followed here is US20210347848A1 (ALX ONCOLOGY, published 2021).

Assay [1] addresses T1, human CD47 (human, UniProt Q08722 19-135).
T1 construct: Soluble analyte in SPR; also called hCD47
The assay is described as follows: SPR, decoy captured on biotinylated Protein A, CD47 as analyte, 25 C. How it is done:
(§1) The binding affinities each decoy polypeptides for CD47 from various species (e.g., human CD47, cynomolgus monkey CD47, and mouse CD47) were determined using indirect capture via biotinylated Protein A (via NLC chip). All experiments were performed at 25° C. using a Surface Plasmon Resonance (SPR)-based ProteOn XPR36 biosensor (BioRad, Inc., Hercules, Calif.). The running buffer was PBS at pH 7.4 with 0.01% Tween-20 (PBST+). All analytes were used at their nominal concentrations as determined by A₂₈₀ absorbance and using their molar calculated extinction coefficients.
(§2) As a first step, 15 μg/mL biotinylated protein A (Thermofisher) was injected at 30 μL/min for 120 seconds over the NLC chip to obtain an immobilization response of about 1000-1200 RUs. Next, decoy polypeptides (about 100-160 nM) were injected for 80 seconds at 30 μL/min. The CD47 analytes (from human, cynomolgus monkey, and mouse) were subsequently injected in a “one-shot” kinetic mode at nominal concentrations of 100 nM, 33 nM, 11 nM, 3.7 nM, 1.2 nM, and 0 nM. Association times were monitored for 60 seconds at 25 μL/min, and dissociation times were monitored for 500 seconds. The surfaces were regenerated with a 2:1 v/v blend of Pierce IgG elution buffer/4M NaCl. Biosensor data were double-referenced by subtracting the interspot data (containing no immobilized protein) from the reaction spot data (immobilized protein) and then subtracting the response of a buffer “blank” analyte injection from that of an analyte injection. Double-referenced data were fit globally to a simple Langmuir model and the KD value was calculated from the ratio of the apparent kinetic rate constants (KD=kd/kₐ).
Background: SPR reads the build-up and loss of mass on a sensor chip optically.

A further assay deals with T2, mouse CD47 (mouse, UniProt Q61735 19-140, limits assumed).
T2 construct: Soluble analyte in SPR; construct not described
T2 sequence (looked up): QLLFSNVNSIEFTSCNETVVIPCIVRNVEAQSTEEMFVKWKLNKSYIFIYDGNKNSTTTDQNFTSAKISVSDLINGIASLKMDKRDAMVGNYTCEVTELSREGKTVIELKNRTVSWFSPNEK
The assay is described as follows: SPR, decoy captured on biotinylated Protein A (NLC chip), CD47 as analyte.

The next assay deals with T3, cynomolgus monkey CD47 (cynomolgus monkey, UniProt A0A2K5X523 19-135).
T3 construct: Soluble analyte in SPR; construct not described; also called Cyno CD47
The description is as above.

Assay [2] addresses T1, human CD47. The assay is described as follows: SPR, decoy captured on biotinylated Protein A, CD47 as analyte, 25 C. How it is done: as §1, §2
The source holds these as a separate data set.

In assay [3] the target is T1, human CD47. The assay is described as follows: SPR; the reference itself (wild type SIRPγ D1 domain).

Read-outs that look alike come from different tables or passages of the source.

T1 sequence (Q08722 other isoform, or with tags, fused parts or gaps limits assumed): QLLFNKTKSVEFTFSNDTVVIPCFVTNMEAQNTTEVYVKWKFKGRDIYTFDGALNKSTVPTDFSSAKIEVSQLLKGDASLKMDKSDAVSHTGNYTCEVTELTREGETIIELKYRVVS

B1: Decoy polypeptide R (Fc fusion)
chain: EEELQMIQPEKLLLVTVGKTATLHCTVTSLLPVGPVLWFRGVGPGRELIYNQKEGHFPRVTTVSDLTKRNNMDFSIRISSITPADVGTYYCVKFRKGSPENVEFKSGPGTEMALGAKPSDKTHTCPPCPAPEAAGAPSVFLFPPKPKDTLMISRTPEVTCVVVDVSHEDPEVKFNWYVDGVEVHNAKTKPREEQYASTYRVVSVLTVLHQDWLNGKEYKCKVSNKALPAPIEKTISKAKGQPREPQVYTLPPSREEMTKNQVSLTCLVKGFYPSDIAVEWESNGQPENNYKTTPPVLDSDGSFFLYSKLTVDKSRWQQGNVFSCSVMHEALHNHYTQKSLSLSPG
notes: also called wild type SIRPγ
Consider B1, for which the dissociation constant Kd in the assay with human CD47 [1] and with human CD47 [2] was 2190 nM throughout. Also, the binding result in the assay with mouse CD47 and with cynomolgus monkey CD47 was “no binding (tested: CD47 analyte up to 100 nM)” in each case. The “Fold improvement in KD vs wild type” value with human CD47 [3] turned out to be 1 fold.
